Measurements published in patent publication US20020119148A1.

What was measured:
[1] = molecular target: HRG binding sites on human mammary carcinoma cell lines MDA-MB-453, T47D and BT474; experiment: self-competition, 100 nM unlabeled HRG against 125I-HRG on MDA-MB-453 cells
[2] = molecular target: HRG binding sites on human mammary carcinoma cell lines MDA-MB-453, T47D and BT474; experiment: self-competition, 100 nM unlabeled HRG against 125I-HRG on T47D cells
[3] = molecular target: HRG binding sites on human mammary carcinoma cell lines MDA-MB-453, T47D and BT474; experiment: self-competition, 100 nM unlabeled HRG against 125I-HRG on BT474 cells
[4] = molecular target: HER-2 on human mammary carcinoma cell lines MDA-MB-453, T47D and BT474 (human) (UniProt P04626); experiment: 125I-HRG binding to T47D cells, 100 nM Mab

percent of 125I-HRG binding blocked [1] [%]	percent of 125I-HRG binding blocked [2] [%]	percent of 125I-HRG binding blocked [3] [%]	percent of 125I-HRG binding blocked [4] [%]	Substance
99	98	96	–	HRGβ1(177-244), EGF-like domain of heregulin β1 (from UniProt Q02297 177-244) (ligand)
–	–	–	48	anti-HER-2 control Mab 4D5 (antibody)
